Reference: US20250179180A1 (TENEOBIO, published 2025)
Numbering of substitutions follows the chain as printed. Names may count otherwise.

B1: mAb CD3 F2B (antibody, V domains shown)
VH: EVQLVESGGGLVQPGRSLRLSCAASGFTFDDYAMHWVRQAPGKGLEWVSGISWNSGSIGYADSVKGRFTISRDNAKNSLYLQMNSLRAEDTALYYCAKDSRGYGDYRLGGAYWGQGTLVTVSS
VL: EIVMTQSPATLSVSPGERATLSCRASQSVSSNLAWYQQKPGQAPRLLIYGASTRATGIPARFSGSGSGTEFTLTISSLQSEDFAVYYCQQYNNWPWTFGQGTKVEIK
notes: also called F2B antibody; mAb F2B
B2: SEQ ID NO 5 (antibody, V domains shown)
VH: B1 VH with R107S
VL: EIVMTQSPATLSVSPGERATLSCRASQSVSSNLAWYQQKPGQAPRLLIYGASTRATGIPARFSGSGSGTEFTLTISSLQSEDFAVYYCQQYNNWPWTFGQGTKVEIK
notes: also called family 2 anti-CD3 FlicAb
B3: SEQ ID NO 2 (antibody, V domains shown)
VH: B1 VH with Q13K, R16G
VL: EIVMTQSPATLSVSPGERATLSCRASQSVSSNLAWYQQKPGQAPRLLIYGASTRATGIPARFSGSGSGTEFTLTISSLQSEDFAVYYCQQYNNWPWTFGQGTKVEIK
notes: as for B2
B4: SEQ ID NO 15 (antibody, V domains shown)
VH: B1 VH with D31N, N77K, R107S
VL: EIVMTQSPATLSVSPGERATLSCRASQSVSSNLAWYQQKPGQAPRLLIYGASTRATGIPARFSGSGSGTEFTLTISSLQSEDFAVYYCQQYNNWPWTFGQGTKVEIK
notes: as for B2
B5: SEQ ID NO 9 (antibody, V domains shown)
VH: B1 VH with D31N, N77K, R107S, L108R
VL: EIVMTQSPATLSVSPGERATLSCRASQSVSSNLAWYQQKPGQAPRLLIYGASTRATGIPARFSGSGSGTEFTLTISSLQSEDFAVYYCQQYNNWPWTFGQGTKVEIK
notes: as for B2
B6: SEQ ID NO 3 (antibody, V domains shown)
VH: B1 VH with N77K, R107S, L108R
VL: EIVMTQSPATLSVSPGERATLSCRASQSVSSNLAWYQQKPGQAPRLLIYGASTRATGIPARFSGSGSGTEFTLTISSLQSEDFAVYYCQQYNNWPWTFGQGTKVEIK
notes: as for B2
B7: SEQ ID NO 16 (antibody, V domains shown)
VH: B1 VH with N77K
VL: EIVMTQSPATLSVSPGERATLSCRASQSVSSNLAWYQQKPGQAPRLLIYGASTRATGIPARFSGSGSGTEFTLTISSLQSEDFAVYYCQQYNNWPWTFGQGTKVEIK
notes: as for B2
B8: SEQ ID NO 4 (antibody, V domains shown)
VH: B1 VH with A88P, R107S
VL: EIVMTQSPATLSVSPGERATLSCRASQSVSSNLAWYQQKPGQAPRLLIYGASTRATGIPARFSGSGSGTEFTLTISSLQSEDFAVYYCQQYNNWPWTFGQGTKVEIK
notes: as for B2
B9: SEQ ID NO 6 (antibody, V domains shown)
VH: B1 VH with D30A, D31N, G59D, R107S, L108R
VL: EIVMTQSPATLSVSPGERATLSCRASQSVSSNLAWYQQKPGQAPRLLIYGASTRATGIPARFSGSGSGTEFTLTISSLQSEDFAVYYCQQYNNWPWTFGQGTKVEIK
notes: as for B2
B10: SEQ ID NO 13 (antibody, V domains shown)
VH: B1 VH with D30H, D31N, R107S
VL: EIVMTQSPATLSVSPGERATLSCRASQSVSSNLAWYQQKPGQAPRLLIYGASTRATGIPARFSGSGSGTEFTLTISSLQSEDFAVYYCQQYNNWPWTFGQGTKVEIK
notes: as for B2
B11: SEQ ID NO 18 (antibody, V domains shown)
VH: B1 VH with A88P
VL: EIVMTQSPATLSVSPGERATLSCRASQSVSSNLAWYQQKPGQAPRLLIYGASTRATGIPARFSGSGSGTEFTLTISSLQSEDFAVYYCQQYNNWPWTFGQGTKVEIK
notes: as for B2
B12: SEQ ID NO 12 (antibody, V domains shown)
VH: B1 VH with A88P, D105S, R107S, L108R
VL: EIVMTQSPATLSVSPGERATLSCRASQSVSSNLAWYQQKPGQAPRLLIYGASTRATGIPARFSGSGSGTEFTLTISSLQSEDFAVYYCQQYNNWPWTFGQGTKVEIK
notes: as for B2
B13: SEQ ID NO 7 (antibody, V domains shown)
VH: B1 VH with D30N, D31N, A88G, R107S, L108R
VL: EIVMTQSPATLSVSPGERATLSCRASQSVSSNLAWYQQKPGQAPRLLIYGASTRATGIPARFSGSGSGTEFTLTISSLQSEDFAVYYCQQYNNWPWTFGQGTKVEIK
notes: as for B2
B14: SEQ ID NO 11 (antibody, V domains shown)
VH: B1 VH with R107S, L108R
VL: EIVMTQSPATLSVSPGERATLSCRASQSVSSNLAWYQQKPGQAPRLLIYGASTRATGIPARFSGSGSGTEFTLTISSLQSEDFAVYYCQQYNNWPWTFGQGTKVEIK
notes: as for B2
B15: SEQ ID NO 10 (antibody, V domains shown)
VH: B1 VH with D31N, R107S, L108R
VL: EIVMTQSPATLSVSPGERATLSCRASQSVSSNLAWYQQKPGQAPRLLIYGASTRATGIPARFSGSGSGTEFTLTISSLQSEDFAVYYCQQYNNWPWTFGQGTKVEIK
notes: as for B2
B16: SEQ ID NO 17 (antibody, V domains shown)
VH: B1 VH with A23E
VL: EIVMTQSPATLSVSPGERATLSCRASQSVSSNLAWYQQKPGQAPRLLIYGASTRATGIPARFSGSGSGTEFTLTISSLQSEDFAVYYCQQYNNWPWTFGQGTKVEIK
notes: as for B2
B17: SEQ ID NO 8 (antibody, V domains shown)
VH: B1 VH with R16G, D30A, R107S, L108R
VL: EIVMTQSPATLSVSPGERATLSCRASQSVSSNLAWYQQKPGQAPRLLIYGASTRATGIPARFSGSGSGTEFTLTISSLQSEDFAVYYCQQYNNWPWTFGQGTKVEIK
notes: as for B2

Biological target: T1, human CD3 (human, UniProt P07766 23-207; P04234 22-171)
T1 construct: also called CD3 on human T cells
T1 sequence (P07766 23-207 limits assumed, chain 1 of 2): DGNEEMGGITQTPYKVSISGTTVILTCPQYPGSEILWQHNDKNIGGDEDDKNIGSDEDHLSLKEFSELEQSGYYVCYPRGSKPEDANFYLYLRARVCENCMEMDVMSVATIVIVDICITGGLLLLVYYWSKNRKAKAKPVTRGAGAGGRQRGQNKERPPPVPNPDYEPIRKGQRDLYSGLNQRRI
T1 sequence (P04234 22-171 limits assumed, chain 2 of 2): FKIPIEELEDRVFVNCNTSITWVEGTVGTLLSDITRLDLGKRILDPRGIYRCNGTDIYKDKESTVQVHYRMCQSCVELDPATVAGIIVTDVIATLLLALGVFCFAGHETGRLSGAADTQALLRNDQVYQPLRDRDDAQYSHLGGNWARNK
Assay: flow cytometry on primary human T cells

| binding result | Binder |
| --- | --- |
| binds | B1 |
| binds | B2 |
| binds | B3 |
| binds | B4 |
| binds | B5 |
| binds | B6 |
| binds | B7 |
| binds | B8 |
| binds | B9 |
| binds | B10 |
| binds | B11 |
| binds | B12 |
| binds | B13 |
| binds | B14 |
| binds | B15 |
| binds | B16 |
| binds | B17 |
